The chains are these.
B1: variant PD-L1 ECD-Fc K57R, S99G, L124S, K144Q (Fc fusion)
chain: FTVTVPKDLYVVEYGSNMTIECKFPVEKQLDLAALIVYWEMEDKNIIQFVHGEEDLRVQHSSYRQRARLLKDQLSLGNAALQITDVKLQDAGVYRCMIGYGGADYKRITVKVNAPYNKINQRISVVDPVTSEHELTCQAEGYPQAEVIWTSSDHQVLSGKTTTTNSKREEKLFNVTSTLRINTTTNEIFYCTFRRLDPEENHTAELVIPELPLAHPPNER
B2: variant PD-L1 ECD-Fc N17D, M97L, S99G (Fc fusion)
chain: B1 chain with N17D, R57K, M97L, S124L, Q144K
B3: variant PD-L1 ECD-Fc I36T, M97L, Q155H, F193S, N201Y (Fc fusion)
chain: B1 chain with I36T, R57K, M97L, G99S, S124L, Q144K, Q155H, F193S, N201Y
B4: variant PD-L1 ECD-Fc K57R, S99G, R195G (Fc fusion)
chain: B1 chain with S124L, Q144K, R195G
B5: variant PD-L1 ECD-Fc Y10F, M18V, S99G, Q138R, T203A (Fc fusion)
chain: B1 chain with Y10F, M18V, R57K, S124L, Q138R, Q144K, T203A
B6: variant PD-L1 ECD-Fc I36S, M41K, M97L, K144Q, R195G, E200K, H202Q, L206F (Fc fusion)
chain: B1 chain with I36S, M41K, R57K, M97L, G99S, S124L, R195G, E200K, H202Q, L206F
B7: variant PD-L1 ECD-Fc I36T, I83T, M97L, K144E, P198T (Fc fusion)
chain: B1 chain with I36T, R57K, I83T, M97L, G99S, S124L, Q144E, P198T
B8: WT CD80 IgV/IgC-Fc (Fc fusion)
chain: VIHVTKEVKEVATLSCGHNVSVEELAQTRIYWQKEKKMVLTMMSGDMNIWPEYKNRTIFDITNNLSIVILALRPSDEGTYECVVLKYEKDAFKREHLAEVTLSVKADFPTPSISDFEIPTSNIRRIICSTSGGFPEPHLSWLENGEELNAINTTVSQDPETELYAVSSKLDFNMTTNHSFMCLIKYGHLRVNQTFNWNTTKQEHFPDN
B9: variant PD-L2 IgV-Fc H15Q (Fc fusion)
chain: LFTVTVPKELYIIEQGSNVTLECNFDTGSHVNLGAITASLQKVENDTSPHRERATLLEEQLPLGKASFHIPQVQVRDEGQYQCIIIYGVAWDYKYLTLKVKA
B10: variant PD-L2 IgV-Fc V89D (Fc fusion)
chain: B9 chain with Q15H, V89D
B11: variant PD-L2 IgV-Fc H15Q, K65R (Fc fusion)
chain: B9 chain with K65R
B12: variant PD-L2 IgV-Fc N24D (Fc fusion)
chain: B9 chain with Q15H, N24D
B13: variant PD-L2 IgV-Fc H15Q, T47A (Fc fusion)
chain: B9 chain with T47A
B14: variant PD-L2 IgV-Fc I13V, H15Q, R76G, I85F (Fc fusion)
chain: B9 chain with I13V, R76G, I85F
B15: variant PD-L2 IgV-Fc H15Q, S67L, R76G, I85F (Fc fusion)
chain: B9 chain with S67L, R76G, I85F
B16: variant PD-L2 IgV-Fc H15Q, Q82R, V89D (Fc fusion)
chain: B9 chain with Q82R, V89D
B17: variant PD-L2 IgV-Fc I13V, E44D, Q82R, V89D (Fc fusion)
chain: B9 chain with I13V, Q15H, E44D, Q82R, V89D
B18: variant PD-L2 IgV-Fc I13V, H15Q, T47A, R76G, V89D (Fc fusion)
chain: B9 chain with I13V, T47A, R76G, V89D
B19: variant PD-L2 IgV-Fc S67L, I85F (Fc fusion)
chain: B9 chain with Q15H, S67L, I85F
B20: variant PD-L2 IgV-Fc G28V, Q72H, R76G, I86T (Fc fusion)
chain: B9 chain with Q15H, G28V, Q72H, R76G, I86T
B21: variant PD-L2 IgV-Fc I13V, H15Q, T47A, Q82R, V89D (SEQ ID NO 725) (Fc fusion)
chain: B9 chain with I13V, N24D, Q82R, V89D
B22: variant PD-L2 IgV-Fc H15Q, N24S, T47A, Q72H, R76G, V89D (Fc fusion)
chain: B9 chain with N24S, T47A, Q72H, R76G, V89D
B23: variant PD-L2 IgV-Fc I13V, H15Q, T37A, E44D, S48C, S67L, Q82R, V89D (Fc fusion)
chain: B9 chain with I13V, T37A, E44D, S48C, S67L, Q82R, V89D
B24: variant PD-L2 IgV-Fc H15Q, V89D (Fc fusion)
chain: B9 chain with V89D
B25: variant PD-L2 IgV-Fc H15Q, T47A, Q72H, R76G, I86T (Fc fusion)
chain: B9 chain with T47A, Q72H, R76G, I86T
B26: variant PD-L2 IgV-Fc E44D (Fc fusion)
chain: B9 chain with Q15H, E44D
B27: variant PD-L2 IgV-Fc Q82R, V89D (Fc fusion)
chain: B9 chain with Q15H, Q82R, V89D
B28: variant PD-L2 IgV-Fc E44D, V89D, W91R (Fc fusion)
chain: B9 chain with Q15H, E44D, V89D, W91R
B29: variant PD-L2 IgV-Fc I13V, H15Q, E44V, T47A, Q82R, V89D (Fc fusion)
chain: B9 chain with I13V, E44V, T47A, Q82R, V89D
B30: variant PD-L2 IgV-Fc H15Q, E44D, R76G, I85F (Fc fusion)
chain: B9 chain with E44D, R76G, I85F
B31: Wild Type PD-L2 IgV (Fc fusion)
chain: B9 chain with Q15H
B32: variant PD-L2 IgV-Fc H15Q, C23S, I86T (Fc fusion)
chain: B9 chain with C23S, I86T
B33: variant PD-L2 IgV-Fc S67L, V89D (Fc fusion)
chain: B9 chain with Q15H, S67L, V89D
B34: variant PD-L2 IgV-Fc H15Q, Q72H, Q74R, R76G, I86T (Fc fusion)
chain: B9 chain with Q72H, Q74R, R76G, I86T
B35: variant PD-L2 IgV-Fc H15Q, Q72H, V89D (Fc fusion)
chain: B9 chain with Q72H, V89D

Where a chain is given by its changes, count along the chain named. Numbers in names are those of the source.

One test addresses CD80 expressed on cells (Homo sapiens). Description: flow cytometry, cells expressing CD80. A general note: Flow cytometry measures light scatter and fluorescence of single cells or particles in a stream.
B1 had a Fold Change Compared to WT PD-L1 of 105.

As to B2, the Fold Change Compared to WT PD-L1 stood at 547.

Molecule B3 came in with a Fold Change Compared to WT PD-L1 of 9.3 and an MFI at 20 nM of 1250.

B4: the Fold Change Compared to WT PD-L1 is 81.8 and the MFI at 20 nM was found to be 11000.

In the case of B5, the Fold Change Compared to WT PD-L1 is 3.1 and the MFI at 20 nM amounted to 412.

The target of the next test is PD-1 expressed on cells (human). Kind of test: flow cytometry, cells expressing PD-1.
Chain of PD-1 expressed on cells (human) (chain, as listed by the source): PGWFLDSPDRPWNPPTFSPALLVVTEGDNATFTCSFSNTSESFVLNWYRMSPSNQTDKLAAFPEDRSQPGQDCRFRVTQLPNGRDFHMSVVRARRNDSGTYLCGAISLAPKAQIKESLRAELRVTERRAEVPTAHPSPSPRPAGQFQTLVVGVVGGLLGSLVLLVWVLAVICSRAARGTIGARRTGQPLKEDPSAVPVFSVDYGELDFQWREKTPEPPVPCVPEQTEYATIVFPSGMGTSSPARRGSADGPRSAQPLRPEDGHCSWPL
As to B6, the MFI at 20 nM worked out at 3500.

As to B1, the Fold Change Compared to WT PD-L1 came out at 0.7.

B2 gave a Fold Change Compared to WT PD-L1 of 3.2.

Regarding B7, the MFI at 20 nM is 62.

Molecule B3 displayed a Fold Change Compared to WT PD-L1 of 0 and an MFI at 20 nM of 69.

Regarding B4, the Fold Change Compared to WT PD-L1 was determined as 0.8.

With B5, the Fold Change Compared to WT PD-L1 turned out to be 0 and the MFI at 20 nM is 70.

In the next test the target is CD28 (human). Description: flow cytometry on HEK293 cells transfected with CD28.
In the case of B8, the MFI at 66.6 nM was found to be 3070.

In another test the target is PD-1-Fc (Homo sapiens). Kind of test: ForteBio, PD-1-Fc. (In general: Biolayer interferometry detects binding as a change in optical thickness at a sensor tip.)
Chain of PD-1-Fc (Homo sapiens) (chain, as listed by the source limits assumed): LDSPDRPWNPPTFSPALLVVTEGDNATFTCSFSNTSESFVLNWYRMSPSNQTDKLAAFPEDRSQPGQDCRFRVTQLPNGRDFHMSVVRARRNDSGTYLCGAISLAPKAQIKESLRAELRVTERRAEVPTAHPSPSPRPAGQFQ
In turn, B9 showed a Fortebio binding to PD-1-Fc Response Units (Response Units) of 0.007.

The molecule B10 returned a Fortebio binding to PD-1-Fc Response Units (Response Units) of 0.005.

As to B11, the Fortebio binding to PD-1-Fc Response Units (Response Units) is -0.001.

Take B12: the Fortebio binding to PD-1-Fc Response Units (Response Units) was -0.039.

Molecule B13 returned a Fortebio binding to PD-1-Fc Response Units (Response Units) of 0.016.

As to B14, the Fortebio binding to PD-1-Fc Response Units (Response Units) was -0.04.

In turn, B15 showed a Fortebio binding to PD-1-Fc Response Units (Response Units) of 0.025.

In turn, B16 yielded a Fortebio binding to PD-1-Fc Response Units (Response Units) of 1.2.

With B17, the Fortebio binding to PD-1-Fc Response Units (Response Units) came to 1.28.

As for B18, the Fortebio binding to PD-1-Fc Response Units (Response Units) amounted to 1.6.

B19: the Fortebio binding to PD-1-Fc Response Units (Response Units) is -0.005.

For the molecule B20, the Fortebio binding to PD-1-Fc Response Units (Response Units) turned out to be 0.003.

For the molecule B21, the Fortebio binding to PD-1-Fc Response Units (Response Units) came out at 1.45.

The molecule B22 showed a Fortebio binding to PD-1-Fc Response Units (Response Units) of 0.4.

In the case of B23, the Fortebio binding to PD-1-Fc Response Units (Response Units) was found to be 1.25.

Take B24: the Fortebio binding to PD-1-Fc Response Units (Response Units) is 0.31.

B25 yielded a Fortebio binding to PD-1-Fc Response Units (Response Units) of 0.512.

In the case of B26, the Fortebio binding to PD-1-Fc Response Units (Response Units) was -0.006.

The target of a further test is PD-1 expressed on cells (human). Description: flow cytometry, Jurkat/PD-1 cells.
With B9, the Fold increase over wildtype PD-L2 IgV-Fc came to 1.63 and the MFI at 50 nM is 16000.

In turn, B10 had a Fold increase over wildtype PD-L2 IgV-Fc of 0.34 and an MFI at 50 nM of 3360.

For B27, the MFI at 50 nM came to 45000.

B11 displayed a Fold increase over wildtype PD-L2 IgV-Fc of 1.37 and an MFI at 50 nM of 13500.

As to B12, the Fold increase over wildtype PD-L2 IgV-Fc stood at 0.14 and the MFI at 50 nM stood at 1410.

Molecule B13 had a Fold increase over wildtype PD-L2 IgV-Fc of 2.7 and an MFI at 50 nM of 26600.

B14 had a Fold increase over wildtype PD-L2 IgV-Fc of 0.48 and an MFI at 50 nM of 4740.

B15: the Fold increase over wildtype PD-L2 IgV-Fc came out at 0.29 and the MFI at 50 nM was found to be 2870.

For B28, the MFI at 50 nM was found to be 614.

B17 had a Fold increase over wildtype PD-L2 IgV-Fc of 4.59 and an MFI at 50 nM of 45200.

In turn, B19 showed a Fold increase over wildtype PD-L2 IgV-Fc of 0.05 and an MFI at 50 nM of 529.

B20 registered a Fold increase over wildtype PD-L2 IgV-Fc of 0.57 and an MFI at 50 nM of 5560.

B21 registered a Fold increase over wildtype PD-L2 IgV-Fc of 6.2 and an MFI at 50 nM of 61000.

The molecule B29 gave an MFI at 50 nM of 61000.

B30 registered an MFI at 50 nM of 2880.

B31: the MFI at 50 nM amounted to 9840.

B32: the MFI at 50 nM came to 830.

As for B33, the MFI at 50 nM was 16000.

B34: the MFI at 50 nM is 4050.

Molecule B24 returned a Fold increase over wildtype PD-L2 IgV-Fc of 1.8 and an MFI at 50 nM of 17700.

The molecule B35 registered an MFI at 50 nM of 12600.

B25 registered a Fold increase over wildtype PD-L2 IgV-Fc of 3.26 and an MFI at 50 nM of 32100.

Molecule B26 displayed a Fold increase over wildtype PD-L2 IgV-Fc of 0.3 and an MFI at 50 nM of 2930.

The record behind these values is patent publication US20230381229A1.
